Blank lines part the entries; values can stand above or below the molecule they belong to.
How the values were obtained:
3xStrep-GFP-tagged STIL = experiment: microtubule recruitment assay in cells (MAP7-mCherry-CEP85 / GFP-STIL co-transfection, fluorescence microscopy); conditions: U-2 OS STIL CRISPR KO cells, co-transfected for 24 h; parent: 98; read off a plot
[1] = biological target: T1, H. sapiens CEP85 570-656 (CEP85 cc4) (human, UniProt Q6P2H3 570-656); experiment: ITC; 10 °C
T1 chain: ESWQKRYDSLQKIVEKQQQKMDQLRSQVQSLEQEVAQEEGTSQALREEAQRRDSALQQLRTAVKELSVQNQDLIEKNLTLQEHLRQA

[2] = biological target: T2, H. sapiens CEP85 570-656 (CEP85 cc4) (Homo sapiens (Human), UniProt Q6P2H3); experiment: ITC (25 °C, plus AUC); text gives only a range of ~14-65 µM, nM is its midpoint; affinity varies ~14-65 µM with experimental conditions; CEP85 cc4 must be dimeric to bind (dimer favoured at reduced temperature)
T2 chain: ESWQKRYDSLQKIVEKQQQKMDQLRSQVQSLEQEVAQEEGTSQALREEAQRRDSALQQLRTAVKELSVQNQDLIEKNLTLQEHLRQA

chicken STIL NTD = biological target: T3, chicken STIL NTD (chicken (Gallus gallus), UniProt A0A8V1A6L7 1-365); experiment: ITC + AUC; recombinant chicken STIL NTD and human CEP85 cc4; affinity given as a range depending on the experimental conditions; conditions: both partners purified
T3 construct: STIL, chicken (Gallus gallus), N-terminal domain (NTD), 66% identical to human STIL NTD; construct details in the Supplementary Information; also called Gallus gallus STIL NTD; STIL NTD WT
T3 sequence (looked up): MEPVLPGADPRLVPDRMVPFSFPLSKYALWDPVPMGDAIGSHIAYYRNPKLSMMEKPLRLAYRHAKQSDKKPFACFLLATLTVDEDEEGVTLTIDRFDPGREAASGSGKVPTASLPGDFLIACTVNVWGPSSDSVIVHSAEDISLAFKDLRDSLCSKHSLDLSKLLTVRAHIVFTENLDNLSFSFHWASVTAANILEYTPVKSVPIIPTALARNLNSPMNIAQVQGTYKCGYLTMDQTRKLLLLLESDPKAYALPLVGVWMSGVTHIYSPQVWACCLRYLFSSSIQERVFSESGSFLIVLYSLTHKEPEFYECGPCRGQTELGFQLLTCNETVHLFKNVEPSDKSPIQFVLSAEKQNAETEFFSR

[3] = biological target: the molecule itself; experiment: crystal structure; H. sapiens CEP85 570-656 alone; 18 °C, 100 mM Na-HEPES pH 7.7, 200 mM Na-Citrate, 36% MPD; 1.7 Å

Molecule: 3xFLAG-MAP7(17-282)-mCherry-CEP85 wild type mutant E644A [human] / 3xStrep-GFP-tagged STIL [not stated] chain 2 E644A
screen value (3xStrep-GFP-tagged STIL): 47 % of cells

B1: chicken STIL NTD (domain or fragment)
chain: MEPVLPGADPRLVPDRMVPFSFPLSKYALWDPVPMGDAIGSHIAYYRNPKLSMMEKPLRLAYRHAKQSDKKPFACFLLATLTVDEDEEGVTLTIDRFDPGREAASGSGKVPTASLPGDFLIACTVNVWGPSSDSVIVHSAEDISLAFKDLRDSLCSKHSLDLSKLLTVRAHIVFTENLDNLSFSFHWASVTAANILEYTPVKSVPIIPTALARNLNSPMNIAQVQGTYKCGYLTMDQTRKLLLLLESDPKAYALPLVGVWMSGVTHIYSPQVWACCLRYLFSSSIQERVFSESGSFLIVLYSLTHKEPEFYECGPCRGQTELGFQLLTCNETVHLFKNVEPSDKSPIQFVLSAEKQNAETEFFSR
Kd [1]: 59 µM
Kd [2]: ~30 µM

B2: H. sapiens CEP85 570-656 (CEP85 cc4) (domain or fragment, human, UniProt Q6P2H3 570-656, looked up)
chain: ESWQKRYDSLQKIVEKQQQKMDQLRSQVQSLEQEVAQEEGTSQALREEAQRRDSALQQLRTAVKELSVQNQDLIEKNLTLQEHLRQA
notes: CEP85, human, fourth coiled-coil domain (cc4), residues 570-656; Limits are those printed for the crystallised construct; Parallel coiled-coil dimer in the crystals; monomer-dimer equilibrium in solution at room temperature; also called human CEP85 cc4; CEP85 coiled-coil
Kd (chicken STIL NTD): 14 to 65 µM
stoichiometry N [3]: 2

More lines, now with the values ahead:

screen value (3xStrep-GFP-tagged STIL): 11 % of cells
Molecule: 3xFLAG-MAP7(17-282)-mCherry-CEP85 wild type mutant Q640A; E644A [human] / 3xStrep-GFP-tagged STIL [not stated] chain 2 Q640A, chain 2 E644A

screen value (3xStrep-GFP-tagged STIL): 22 % of cells
Molecule: 3xFLAG-MAP7(17-282)-mCherry-CEP85 wild type mutant Q640A [human] / 3xStrep-GFP-tagged STIL [not stated] chain 2 Q640A
